# Reference: publication PMC9482650, “Quantitative fragmentomics allow affinity mapping of interactomes” (Nature Communications, 2022)
# T1: APBA1_1, Q02410
# T1 sequence (Q02410 651-752, limits assumed, looked up): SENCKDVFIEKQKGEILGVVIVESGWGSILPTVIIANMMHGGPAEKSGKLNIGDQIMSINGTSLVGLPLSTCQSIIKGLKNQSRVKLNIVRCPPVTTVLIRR
# T2: DFNB31_1, Q9P202
# T2 sequence (Q9P202 135-233, limits assumed, looked up): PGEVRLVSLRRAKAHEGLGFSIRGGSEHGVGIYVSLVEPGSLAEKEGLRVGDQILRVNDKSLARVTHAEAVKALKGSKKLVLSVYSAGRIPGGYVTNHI
# T3: GRIP1_4, Q9Y3R0
# T3 sequence (Q9Y3R0 467-571, limits assumed, looked up): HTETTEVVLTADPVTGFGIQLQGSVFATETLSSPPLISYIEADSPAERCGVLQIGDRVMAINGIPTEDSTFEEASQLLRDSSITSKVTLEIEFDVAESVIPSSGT
# T4: HTRA3, P83110
# T4 sequence (P83110 354-453, limits assumed, looked up): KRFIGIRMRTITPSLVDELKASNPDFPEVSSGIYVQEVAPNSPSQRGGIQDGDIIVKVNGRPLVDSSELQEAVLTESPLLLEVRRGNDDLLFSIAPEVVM
# T5: LIN7C, Q9NUP9
# T5 sequence (Q9NUP9 88-185, limits assumed, looked up): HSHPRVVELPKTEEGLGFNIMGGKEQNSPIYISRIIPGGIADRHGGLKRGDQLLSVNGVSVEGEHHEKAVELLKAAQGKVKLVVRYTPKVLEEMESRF
# T6: MPDZ_10, O75970
# T6 sequence (O75970 1624-1722, limits assumed, looked up): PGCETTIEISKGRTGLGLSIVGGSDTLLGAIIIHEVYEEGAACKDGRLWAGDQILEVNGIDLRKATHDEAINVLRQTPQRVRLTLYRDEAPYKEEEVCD
# T7: MPDZ_12, O75970
# T7 sequence (O75970 1857-1958, limits assumed, looked up): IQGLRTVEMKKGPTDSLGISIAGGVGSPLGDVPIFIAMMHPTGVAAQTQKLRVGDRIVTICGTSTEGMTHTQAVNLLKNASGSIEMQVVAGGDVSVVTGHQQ
# T8: MPP7, Q5T2T1
# T8 sequence (Q5T2T1 134-230, limits assumed, looked up): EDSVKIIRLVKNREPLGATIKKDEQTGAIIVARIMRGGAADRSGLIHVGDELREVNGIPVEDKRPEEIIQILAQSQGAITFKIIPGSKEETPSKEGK
# T9: PARD3B_1, Q8TEW8
# T9 sequence (Q8TEW8 196-299, limits assumed, looked up): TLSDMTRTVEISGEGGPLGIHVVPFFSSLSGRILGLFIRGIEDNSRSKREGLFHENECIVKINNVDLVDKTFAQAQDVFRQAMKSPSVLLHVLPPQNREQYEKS
# T10: PTPN13_1, Q12923
# T10 sequence (Q12923 1088-1188, limits assumed, looked up): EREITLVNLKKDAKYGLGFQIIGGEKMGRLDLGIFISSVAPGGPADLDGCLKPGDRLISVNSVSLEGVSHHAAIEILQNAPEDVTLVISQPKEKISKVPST
# T11: SNTG1, Q9NSN8
# T11 sequence (Q9NSN8 52-150, limits assumed, looked up): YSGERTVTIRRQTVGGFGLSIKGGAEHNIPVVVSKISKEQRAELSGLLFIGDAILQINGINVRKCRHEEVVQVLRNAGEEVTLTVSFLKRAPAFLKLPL
# Tests used:
# Test in all cases: holdup assay
# Parameters in all cases: key: below the threshold = too weak to quantify, mostly under pKd 3.1 to 4
# [1] = biological target: T1, APBA1_1, Q02410
# [2] = biological target: ARHGEF12, Q9NZN5-2
# [3] = biological target: CASK, O14936
# [4] = biological target: T2, DFNB31_1, Q9P202
# [5] = biological target: DLG1_3, Q12959
# [6] = biological target: FRMPD2_3, Q68DX3
# [7] = biological target: GRID2IP_2, A4D2P6
# [8] = biological target: T3, GRIP1_4, Q9Y3R0
# [9] = biological target: GRIP2_4, Q9C0E4
# [10] = biological target: HTRA1, Q92743
# [11] = biological target: T4, HTRA3, P83110
# [12] = biological target: Inadl_3, Q8NI35
# [13] = biological target: Inadl_4, Q8NI35
# [14] = biological target: Inadl_5, Q8NI35
# [15] = biological target: Inadl_6, Q8NI35
# [16] = biological target: T5, LIN7C, Q9NUP9
# [17] = biological target: MAGI1_1, Q96QZ7
# [18] = biological target: MAGI3_2, Q5TCQ9
# [19] = biological target: T6, MPDZ_10, O75970
# [20] = biological target: T7, MPDZ_12, O75970
# [21] = biological target: T8, MPP7, Q5T2T1
# [22] = biological target: NHERF2_2, Q15599
# [23] = biological target: T9, PARD3B_1, Q8TEW8
# [24] = biological target: PDLIM1, O00151
# [25] = biological target: T10, PTPN13_1, Q12923
# [26] = biological target: T11, SNTG1, Q9NSN8
# [27] = biological target: TJP1_3, Q07157
# [28] = plain residues with an end cap or a label only (N-terminal biotin on a linker: ahx)
# [29] = plain residues with an end cap or a label only (N-terminal biotin on a linker: ttds)
# HTRA1, Q92743, sequence (Q92743 360-477): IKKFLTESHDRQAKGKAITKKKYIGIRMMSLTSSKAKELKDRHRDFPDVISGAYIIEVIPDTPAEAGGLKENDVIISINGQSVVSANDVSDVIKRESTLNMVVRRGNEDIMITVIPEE
# MAGI1_1, Q96QZ7, sequence (Q96QZ7 1-106): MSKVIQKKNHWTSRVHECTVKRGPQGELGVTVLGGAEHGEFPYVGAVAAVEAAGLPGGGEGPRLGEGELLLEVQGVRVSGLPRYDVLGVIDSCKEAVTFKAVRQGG
# Inadl_3, Q8NI35, sequence (Q8NI35 359-469): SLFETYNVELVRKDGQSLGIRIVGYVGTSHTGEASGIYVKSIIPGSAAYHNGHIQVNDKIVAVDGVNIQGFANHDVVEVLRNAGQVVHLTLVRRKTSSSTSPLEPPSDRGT
# MAGI3_2, Q5TCQ9, sequence (Q5TCQ9 398-503): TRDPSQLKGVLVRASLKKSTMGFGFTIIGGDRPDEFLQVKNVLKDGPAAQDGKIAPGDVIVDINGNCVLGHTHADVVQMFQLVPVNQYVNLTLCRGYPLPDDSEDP
# DLG1_3, Q12959, sequence (Q12959 457-571): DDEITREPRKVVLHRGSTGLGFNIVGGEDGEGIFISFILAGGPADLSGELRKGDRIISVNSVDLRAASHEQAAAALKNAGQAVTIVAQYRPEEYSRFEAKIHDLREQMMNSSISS
# GRID2IP_2, A4D2P6, sequence (A4D2P6 272-370): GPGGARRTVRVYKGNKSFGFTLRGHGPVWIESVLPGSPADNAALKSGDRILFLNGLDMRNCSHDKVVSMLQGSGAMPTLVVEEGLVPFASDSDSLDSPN
# FRMPD2_3, Q68DX3, sequence (Q68DX3 1073-1166): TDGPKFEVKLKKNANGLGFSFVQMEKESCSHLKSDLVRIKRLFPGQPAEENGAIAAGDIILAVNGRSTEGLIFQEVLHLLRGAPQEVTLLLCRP
# ARHGEF12, Q9NZN5-2, sequence (Q9NZN5 other isoform, or with tags, fused parts or gaps): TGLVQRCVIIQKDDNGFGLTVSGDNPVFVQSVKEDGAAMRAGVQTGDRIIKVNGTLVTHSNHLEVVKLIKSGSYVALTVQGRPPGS
# Inadl_5, Q8NI35, sequence (Q8NI35 673-780): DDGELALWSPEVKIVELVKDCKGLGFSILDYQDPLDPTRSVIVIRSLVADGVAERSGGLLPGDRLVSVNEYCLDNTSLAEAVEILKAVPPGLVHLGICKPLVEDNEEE
# CASK, O14936, sequence (O14936 487-570): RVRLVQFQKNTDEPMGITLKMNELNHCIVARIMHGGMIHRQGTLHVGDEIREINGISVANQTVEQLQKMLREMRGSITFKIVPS
# PDLIM1, O00151, sequence (O00151 1-87): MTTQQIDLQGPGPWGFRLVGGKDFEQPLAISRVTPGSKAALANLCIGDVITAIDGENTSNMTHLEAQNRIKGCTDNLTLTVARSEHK
# GRIP2_4, Q9C0E4, sequence (Q9C0E4 446-548): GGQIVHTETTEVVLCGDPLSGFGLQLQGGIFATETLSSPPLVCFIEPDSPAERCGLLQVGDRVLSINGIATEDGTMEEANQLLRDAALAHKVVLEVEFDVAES
# TJP1_3, Q07157, sequence (Q07157 416-512): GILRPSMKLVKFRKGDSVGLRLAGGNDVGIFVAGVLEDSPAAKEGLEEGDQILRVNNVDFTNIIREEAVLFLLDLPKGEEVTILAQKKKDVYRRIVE
# Inadl_6, Q8NI35, sequence (Q8NI35 1058-1167): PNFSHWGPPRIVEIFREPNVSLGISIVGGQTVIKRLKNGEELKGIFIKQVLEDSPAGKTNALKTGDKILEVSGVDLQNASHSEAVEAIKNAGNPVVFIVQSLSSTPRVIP
# Inadl_4, Q8NI35, sequence (Q8NI35 547-651): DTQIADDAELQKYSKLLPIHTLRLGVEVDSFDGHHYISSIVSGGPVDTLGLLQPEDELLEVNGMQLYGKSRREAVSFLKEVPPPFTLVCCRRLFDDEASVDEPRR
# NHERF2_2, Q15599, sequence (Q15599 142-238): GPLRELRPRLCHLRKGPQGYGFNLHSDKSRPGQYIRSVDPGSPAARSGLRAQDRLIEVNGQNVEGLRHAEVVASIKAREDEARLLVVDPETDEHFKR
binder,measurement,setting,value
"YNSFLSVTTV [PDZRN3, Q9UPQ7]",pKd,[1]; [28],below the threshold
same,pKd,[2]; [28],4.25
same,pKd,[3]; [28],below the threshold
same,pKd,[4]; [28],below the threshold
same,pKd,[5]; [28],3.83
same,pKd,[6]; [28],below the threshold
same,pKd,[7]; [28],3.57
same,pKd,[8]; [28],below the threshold
same,pKd,[9]; [28],below the threshold
same,pKd,[10]; [28],4.3
same,pKd,[11]; [28],below the threshold
same,pKd,[12]; [28],3.76
same,pKd,[13]; [28],below the threshold
same,pKd,[14]; [28],below the threshold
same,pKd,[15]; [28],below the threshold
same,pKd,[16]; [28],3.47
same,pKd,[17]; [28],below the threshold
same,pKd,[18]; [28],4.27
same,pKd,[19]; [28],3.96
same,pKd,[20]; [28],below the threshold
same,pKd,[21]; [28],below the threshold
same,pKd,[22]; [28],below the threshold
same,pKd,[23]; [28],below the threshold
same,pKd,[24]; [28],below the threshold
same,pKd,[25]; [28],below the threshold
same,pKd,[26]; [28],3.79
same,pKd,[27]; [28],below the threshold
"PKMKLNETSF [SHKBP1, Q8TBC3]",pKd,[1]; [28],below the threshold
same,pKd,[2]; [28],below the threshold
same,pKd,[3]; [28],below the threshold
same,pKd,[4]; [28],3.66
same,pKd,[5]; [28],below the threshold
same,pKd,[6]; [28],below the threshold
same,pKd,[7]; [28],below the threshold
same,pKd,[8]; [28],below the threshold
same,pKd,[9]; [28],below the threshold
same,pKd,[10]; [28],below the threshold
same,pKd,[11]; [28],below the threshold
same,pKd,[12]; [28],below the threshold
same,pKd,[13]; [28],below the threshold
same,pKd,[14]; [28],below the threshold
same,pKd,[15]; [28],below the threshold
same,pKd,[16]; [28],3.49
same,pKd,[17]; [28],below the threshold
same,pKd,[18]; [28],below the threshold
same,pKd,[19]; [28],below the threshold
same,pKd,[20]; [28],below the threshold
same,pKd,[21]; [28],below the threshold
same,pKd,[22]; [28],4.32
same,pKd,[23]; [28],below the threshold
same,pKd,[24]; [28],3.51
same,pKd,[25]; [28],below the threshold
same,pKd,[26]; [28],3.68
same,pKd,[27]; [28],below the threshold
"FVETQHQTQV [FAT3, Q8TDW7]",pKd,[1]; [29],below the threshold
same,pKd,[2]; [29],3.88
same,pKd,[3]; [29],below the threshold
same,pKd,[4]; [29],3.48
same,pKd,[5]; [29],3.95
same,pKd,[6]; [29],below the threshold
same,pKd,[7]; [29],3.59
same,pKd,[8]; [29],below the threshold
same,pKd,[9]; [29],below the threshold
same,pKd,[10]; [29],below the threshold
same,pKd,[11]; [29],below the threshold
same,pKd,[12]; [29],below the threshold
same,pKd,[13]; [29],below the threshold
same,pKd,[14]; [29],below the threshold
same,pKd,[15]; [29],below the threshold
same,pKd,[16]; [29],below the threshold
same,pKd,[17]; [29],below the threshold
same,pKd,[18]; [29],4.57
same,pKd,[19]; [29],below the threshold
same,pKd,[20]; [29],below the threshold
same,pKd,[21]; [29],below the threshold
same,pKd,[22]; [29],below the threshold
same,pKd,[23]; [29],below the threshold
same,pKd,[24]; [29],below the threshold
same,pKd,[25]; [29],below the threshold
same,pKd,[26]; [29],4.02
same,pKd,[27]; [29],below the threshold
"SRSRRRETAL [HPV33-E6, P06427]",pKd,[1]; [29],below the threshold
same,pKd,[2]; [29],4.78
same,pKd,[3]; [29],below the threshold
same,pKd,[4]; [29],3.77
same,pKd,[5]; [29],4.56
same,pKd,[6]; [29],below the threshold
same,pKd,[7]; [29],4.18
same,pKd,[8]; [29],below the threshold
same,pKd,[9]; [29],below the threshold
same,pKd,[10]; [29],3.48
same,pKd,[11]; [29],below the threshold
same,pKd,[12]; [29],below the threshold
same,pKd,[13]; [29],below the threshold
same,pKd,[14]; [29],below the threshold
same,pKd,[15]; [29],3.7
same,pKd,[16]; [29],4.14
same,pKd,[17]; [29],below the threshold
same,pKd,[18]; [29],5.39
same,pKd,[19]; [29],below the threshold
same,pKd,[20]; [29],below the threshold
same,pKd,[21]; [29],below the threshold
same,pKd,[22]; [29],3.97
same,pKd,[23]; [29],3.43
same,pKd,[24]; [29],below the threshold
same,pKd,[25]; [29],below the threshold
same,pKd,[26]; [29],3.62
same,pKd,[27]; [29],below the threshold
